From the supplement of paper PMC6757056
± gives the standard deviation of the averaged measurements.

B1: library; a variant is named by its letters at N, in order (parent)
chain: GCUGUCACCGAGAAACUGUGAAGUAUAUCUUAAACCUGGGCACUUAAAAGAUAUAUGGAGUUAGUAGUGCAACCUGCUCGGUCUGAUGAGUCCNNNNNNGGACGAAACAGC

Assays:
cyclic di-GMP [1] = variants of: B1; experiment: FACS-Seq fitted mean relative fluorescence mCherry/BFP without ligand (log10 relative fluorescence); HEK293T; ligand: cyclic di-GMP (c-di-GMP-II aptamer); higher = higher reporter protein expression; settings: ligand present: no
Method in brief: (§1)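 HEK293T libraries were lentivirally transduced with an mCherry reporter carrying the ribozyme switch and an EF1α-BFP marker, enriched, and incubated for 48 h with or without ligand before sorting into 6 bins by mCherry/BFP. Genomic DNA from each bin was PCR-amplified, barcoded and sequenced on MiSeq. Fluorescence is the fitted normal mean of the bin counts. The fit used log10(mCherry/BFP), and means were scaled to five spiked-in control ribozymes.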

cyclic di-GMP [2] = variants of: B1; experiment: normalized RNA/DNA level without ligand (relative to sTRSVctl = 100) (log10 (% of sTRSVctl)); HEK293T; ligand: cyclic di-GMP (c-di-GMP-II aptamer); higher = less ribozyme self-cleavage, higher mRNA level; settings: reporter: mCherry (pCS4076), ligand present: no
Method in brief: (§2)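 Total RNA, extracted with EDTA 72 h after HEK293T cells were transfected with 4 µg per 6-well well of reporter-linked ribozyme switch library plasmids, was reverse-transcribed, amplified, barcoded and sequenced. Ligand, if used, was added 1 h before transfection. RNA level was derived from RNA reads divided by DNA reads and normalized to a spiked-in non-cleaving sequence or to the top sequences. This was multiplied by 100 and log10-transformed, with the top set of 25 sequences and a ≥100 DNA read minimum.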

cyclic di-GMP [3] = variants of: B1; experiment: FACS-Seq fitted mean relative fluorescence mCherry/BFP with ligand (log10 relative fluorescence); HEK293T; ligand: cyclic di-GMP (c-di-GMP-II aptamer); ligand concentration (+) FACS-Seq: 1 mM; higher = higher reporter protein expression; settings: ligand present: yes
Method in brief: as §1

cyclic di-GMP [4] = variants of: B1; experiment: normalized RNA/DNA level with ligand (relative to sTRSVctl = 100) (log10 (% of sTRSVctl)); HEK293T; ligand: cyclic di-GMP (c-di-GMP-II aptamer); ligand concentration (+) RNA-Seq: 1 mM; higher = less ribozyme self-cleavage, higher mRNA level; settings: reporter: mCherry (pCS4076), ligand present: yes
Method in brief: as §2

Variant | FACS-Seq fitted mean (log10) (cyclic di-GMP [1]) | normalized RNA/DNA level without ligand (log10) (cyclic di-GMP [2]) | FACS-Seq fitted mean (log10) (cyclic di-GMP [3]) | normalized RNA/DNA level with ligand (log10) (cyclic di-GMP [4])
UGUAUA | -0.0844 ± 0.055 | 1.73 ± 0.083 | 0.221 ± 0.027 | 1.87 ± 0.073
ACUCAG | -0.836 ± 0.044 | 1.61 ± 0.031 | -0.677 ± 0.16 | 1.77 ± 0.1
UCCUCC | -0.766 ± 0.014 | 1.81 ± 0.047 | -0.515 ± 0.021 | 1.91 ± 0.17
CUAAAU | -0.443 ± 0.034 | 1.5 ± 0.1 | -0.0872 ± 0.068 | 1.69 ± 0.044
GUUUGA | -0.499 ± 0.039 | 1.56 ± 0.086 | -0.212 ± 0.018 | 1.71 ± 0.042
AGGAUA | -0.5971 ± 0.0057 | 1.34 ± 0.12 | -0.199 ± 0.011 | 1.49 ± 0.018
UAUUCU | -0.432 ± 0.069 | 1.7467 ± 0.0014 | -0.275 ± 0.051 | 1.89 ± 0.094
GAGAUU | -0.388 ± 0.22 | 1.71 ± 0.035 | -0.0338 ± 0.038 | 1.82 ± 0.1
AACAAU | -0.133 ± 0.038 | 1.594 ± 0.0028 | 0.103 ± 0.014 | 1.71 ± 0.13
CGCUUU | -0.255 ± 0.035 | 1.46 ± 0.071 | 0.0291 ± 0.018 | 1.69 ± 0.073
GUUCUG | -0.079 ± 0.018 | 1.67 ± 0.021 | 0.284 ± 0.091 | 1.84 ± 0.15
AUUGGU | -0.24 ± 0.092 | 1.58 ± 0.052 | 0.0192 ± 0.053 | 1.78 ± 0.14
CGAUAU | -0.508 ± 0.039 | 1.43 ± 0.1 | -0.183 ± 0.014 | 1.62 ± 0.11
UGUGAC | 0.123 ± 0.24 | 1.644 ± 0.015 | 0.27 ± 0.01 | 1.79 ± 0.082
AUAAAG | -0.485 ± 0.024 | 1.56 ± 0.038 | -0.249 ± 0.071 | 1.73 ± 0.14
GAUGUA | -0.456 ± 0.056 | 1.662 ± 0.0051 | -0.166 ± 0.016 | 1.77 ± 0.11
GAACAG | -0.182 ± 0.12 | 1.753 ± 0.015 | 0.0981 ± 0.039 | 1.82 ± 0.094
CCCCUU | -0.25 ± 0.04 | 1.65 ± 0.019 | 0.125 ± 0.14 | 1.84 ± 0.12

Variant | FACS-Seq fitted mean (log10) (cyclic di-GMP [1]) | normalized RNA/DNA level without ligand (log10) (cyclic di-GMP [2]) | FACS-Seq fitted mean (log10) (cyclic di-GMP [3]) | normalized RNA/DNA level with ligand (log10) (cyclic di-GMP [4])
UAAUCU | -0.884 ± 0.042 | 1.718 ± 0.0051 | -0.707 ± 0.054 | 1.85 ± 0.08
ACUUUA | -1.11 ± 0.037 | 1.59 ± 0.044 | -0.989 ± 0.12 | 1.76 ± 0.067
AGUAAG | -0.172 ± 0.14 | 1.53 ± 0.11 | 0.221 ± 0.032 | 1.7 ± 0.062
ACAAUC | -0.873 ± 0.017 | 1.49 ± 0.043 | -0.61 ± 0.16 | 1.7 ± 0.15
UUGGCU | -0.121 ± 0.069 | 1.789 ± 0.009 | 0.192 ± 0.12 | 1.88 ± 0.15
AGAGAA | -0.335 ± 0.073 | 1.33 ± 0.12 | -0.0362 ± 0.068 | 1.54 ± 0.1
AGAAAA | -0.765 ± 0.013 | 1.42 ± 0.084 | -0.587 ± 0.043 | 1.61 ± 0.089
GAGCGC | -0.228 ± 0.14 | 1.79 ± 0.049 | -0.101 ± 0.16 | 1.83 ± 0.082
GCUGUG | -0.283 ± 0.07 | 1.64 ± 0.018 | -0.00737 ± 0.013 | 1.79 ± 0.085
AGGAUC | -0.0729 ± 0.071 | 1.63 ± 0.023 | 0.137 ± 0.019 | 1.78 ± 0.1
AUUGUA | -0.397 ± 0.017 | 1.56 ± 0.031 | 0.0499 ± 0.075 | 1.71 ± 0.097
ACCCAC | 0.134 ± 0.14 | 1.69 ± 0.029 | 0.321 ± 0.024 | 1.84 ± 0.15
UCAGAU | -0.378 ± 0.029 | 1.49 ± 0.067 | -0.0266 ± 0.08 | 1.67 ± 0.078
AGCGGU | -0.189 ± 0.03 | 1.64 ± 0.024 | 0.149 ± 0.093 | 1.8 ± 0.1
UGAUUU | 0.198 ± 0.26 | 1.69 ± 0.047 | 0.343 ± 0.1 | 1.86 ± 0.16
GCACGA | -0.471 ± 0.043 | 1.43 ± 0.093 | -0.123 ± 0.049 | 1.65 ± 0.11
CCGAGC | -0.204 ± 0.022 | 1.78 ± 0.059 | 0.0994 ± 0.021 | 1.88 ± 0.14
ACCCGC | -0.436 ± 0.15 | 1.75 ± 0.018 | -0.0881 ± 0.013 | 1.85 ± 0.099
